Experimental data from the nanobody polyreactivity screen of Harvey et al. (2022).

Assay: yeast display, Sf9 membrane polyspecificity reagent, FACS + sequencing; frameworks hold sequencing errors
Summary of the method: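 Galactose induction of a Saccharomyces cerevisiae BJ5465 synthetic nanobody display library ran 36–48 hours. The cells were then stained for 1 hour at 4 °C with 10% biotinylated, detergent-solubilized Sf9 membrane reagent, pulled down on streptavidin microbeads and FACS-sorted into low and high (top ~1%) gates on expression and reagent-binding fluorescence. Labels for polyreactivity follow the gate of origin.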

| Sequence | polyreactivity (PSR sort gate) |
| --- | --- |
| QVQLVESGGGLVQAGGSLRLSCAASGSNFDYNTMGWYRQAPGKEREFVAAISSSGGGTSYADSVKGRFTISRDNAKNTVYLQMNSLKPEDTAVYYCAALIKLTPYQRQYWKYRAYYYGGQGTQVTVSS | high polyreactivity |
| QVQLVESGGGLVQAGGSLRLSCAASGSNFDYYAMGWYRQAPGKERELVAAISSTDGSTFYADSVKGRFTISRDNAKNTVYLQMNSLKPEDTAVYYCAVVGYYYPWPNGYDYWGQGTQVTVSS | low polyreactivity |
| QVQLVESGGGLVQAGGSLRLSCAASGSNFFTNAMGGYRQAPGKERELVAVITKRGGSTYYADSVKGRFTISRDNAKNTVYIQMNSLKPEDTAVYYCAADARQWRYYYWGQGSQVTVSS | high polyreactivity |
| QVQLVESGGGLVQAGGSLRLSCAASGSNFGDNPMGWYRQAPGKERELVAAISSSGDSTYYADSVKGRFTISRDNAKNTVYLQMNSLKPEDTAVYYCADDRGSTAGSVTYTPGNYWGQGTQVTVSS | low polyreactivity |
| QVQLVESGGGLVQAGGSLRLSCAASGSNFLIYAMGSYSQAPGKERELVAAITFSGCSTYADSVKGRFTISRENAKNTVYLQMNSLKPEDTAVYYCAADSTKYAYDYWGQGTQVTVSS | low polyreactivity |
| QVQLVESGGGLVQAGGSLRLSCAASGSNFLPNAMGWYRQAPGKERELVAAISWSDDSTYYADSVKGRFTISRDNAKNTVDLQMNSLNPEDTAVYYCAADVGLWYDYWGQGTQVTVSS | high polyreactivity |
| QVQLVESGGGLVQAGGSLRLSCAASGSNFRVYAMGWYRQAPGKESELVAAIDSGTSTTYADSVKGRFTISRDNAKNTVYLQMNSLKPEDTAVYYCAADGWLWSFTGDGWWFDYWGQGTQVTVSS | low polyreactivity |
| QVQLVESGGGLVQAGGSLRLSCAASGSNFSDYAMGWYRQAPGKEREFVATITWSGTSTYYADSVKGRFTISRDNAKNTVYLQMNSLKAEDTAVYYCAAELLFWLGLVPGTIFDEFDYWGQGTQVTVSS | low polyreactivity |
| QVQLVESGGGLVQAGGSLRLSCAASGSNFSRYAMGWYRQAPGKERDLVAAITSTGDSTSYADSVKGRFTISRDNAKNTVYVQMNSLKPEDTAVYYCAIVYVYRYVIPYDYWGQGTQVTVSS | low polyreactivity |
| QVQLVESGGGLVQAGGSLRLSCAASGSNFTNAMGWYRQAPGKERELVASIDANAGDTHYADSVKGRFTISRDNAKNTVYLQLNSLKPEDTAVYYCNADVTERLWTGEDDYWGQGTQVTVSS | low polyreactivity |
| QVQLVESGGGLVQAGGSLRLSCAASGSNFTWYAMGWYRQAPGKERELVADIDWSGGSTYYADSVKGRFTISRDNAKNTVYLQMNSLKPEDTAVYYCNAVFLFYEYWGQGTQVTVSS | low polyreactivity |
| QVQLVESGGGLVQAGGSLRLSCAASGSNFTYNRMGWYRQAPGKEREFVDAITWTGGSTYAYSVKGRFTISRDNAKNTVYLQINSLKPEDTAVYYCAAVRRISWYTPVITRRYYYWGQGTQVTVSS | high polyreactivity |
| QVQLVESGGGLVQAGGSLRLSCAASGSNFVYNAMGWYRQAPGKERELVAVINKSGDTTYYADSVKGRFTISRDNAKNTVYLQMNSLKPEDTAVYYCNASGEVLAAVVTYDYWGQGTQVTVSS | low polyreactivity |
| QVQLVESGGGLVQAGGSLRLSCAASGSNFWRKAMGWYRQAPGKERELVAAITCGGSTYYADSVKGRCTISRDNAKNTVYLQMNSLKTEVTAVYYCAAGYSYRYGYWGQGTQVTVSS | low polyreactivity |
| QVQLVESGGGLVQAGGSLRLSCAASGSNFYDNAMGWYRQAPGKERELLAAITTSGDSTYYADSVKGPFTISRDNAKNTVYLQMNSLKPEDTAVYYCAARPRVRSSYRYYYWGQGTQVTVSS | high polyreactivity |
| QVQLVESGGGLVQAGGSLRLSCAASGSNFYSYAMGWYRQAPGKERELVAAITGDGGSTYYADSVKGRFTISRDNAKNTVYLQRNSLKPEDTAVYYCAVPHTYRRYDYWGQGTQVTVSS | low polyreactivity |
| QVQLVESGGGLVQAGGSLRLSCAASGSNIKYYAMGWYRQAPGKERELVARITSDGGSTFYADSVKGRFTISRDNAKNTVYLQMNSLKPEDTAVYYCNTAYAFRHCWFYPMDYWGQGTQVTVSS | high polyreactivity |
